Experimental findings from patent US20240360208A1 (Hoffmann-La Roche, published 2024) are described below.

Changes are numbered by the printed parent chain. Some results are limits rather than exact numbers.

Assay [1] addresses T1, human CCL2 (MCP1) - P8A variant (human, UniProt P13500 24-99).
T1 construct: In-house point mutant that cannot dimerise; also called monomeric human CCL2; monomeric CCL2
The assay can be described thus: number printed over the column of sensorgrams; the assay and the CCL2 form behind the number are not stated on the sheet (the sensorgrams are on monomeric CCL2).

The target in assay [2] is T2, human CCL2 (MCP1) - wild type (wt) (human, UniProt P13500 24-99).
T2 construct: Made in-house or bought (R&D Systems 279-MC), depending on the assay; can form dimers; also called wt human CCL2; WT human CCL2
The assay can be described thus: SPR T200, 37 C, antibody captured, 1:1 model. As to the method:
(§1) Antibody clone supernatants were diluted 1:2 in system buffer and were captured for 1 min at 5 μl/min. […] Analyte kinetics were performed at 30 μl/min. As analyte in solution wt human CCL2 or monomeric CCL2 P8A variant CCL2 were used. Analytes were injected at 90 nM highest concentration. The analyte contact time was 3 min and the dissociation time was 10 min. The Biaevaluation software V.3.0 was used according to the instructions of the manufacturer GEHC. A 1:1 binding model with RMAX local was applied to apparently estimate kinetic rates.

For assay [3], the target named is T1, human CCL2 (MCP1) - P8A variant. The assay can be described thus: SPR T200, 37 C, antibody captured, 1:1 model. As to the method: as §1
Assay [4] has as its target T2, human CCL2 (MCP1) - wild type (wt). The assay can be described thus: cell-based or functional assay.
Assay [5] addresses T3, human CCL7 (MCP3) - wild type (wt) (human, UniProt P80098 24-99).
T3 construct: Bought from R&D Systems for the homolog assay
The assay can be described thus: SPR (Biacore T200), 25 °C, ACES pH 7.4; antibody captured on anti-human IgG (Fc), chemokine injected at 5 nM and 20 nM. As to the method:
(§2) Biacore assay method: The binding of anti-CCL2 antibodies to the CCL homologs e.g. CCL2 (MCP-1), CCL8 (MCP-2), CCL7 (MCP-3), and CCL13 (MCP-4) were assessed at 25° C. using Biacore T200 instrument (GE Healthcare). Mouse anti-human IgG (Fc) (GE Healthcare) was immobilized on each flow cells of a CM4 sensor chip using amine coupling kit (GE Healthcare) according to the recommended settings by the manufacturer. Antibodies and analytes were diluted into ACES pH 7.4 buffer (20 mM ACES, 150 mM NaCl, 1 mg/ml BSA, 0.05% Tween 20, 0.005% NaN3). Antibodies were captured onto the anti-Fc sensor surfaces, then recombinant human CCL homologs proteins was injected over the flow cell at 5 nM and 20 nM. […] Sensor surface was regenerated each cycle with 3M MgCl2. Binding sensorgram was processed using Biacore T200 Evaluation software, version 2.0 (GE Healthcare).
A general note: Surface plasmon resonance follows binding to a sensor surface in real time, without labels.

The target in assay [6] is T4, human CCL8 (MCP2) - wild type (wt) (human, UniProt P80075 24-99).
T4 construct: also called huCCL8
T4 sequence: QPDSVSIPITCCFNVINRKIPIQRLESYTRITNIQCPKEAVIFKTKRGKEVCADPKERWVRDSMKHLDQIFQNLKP
Described as above. The procedure:
as §2

Assay [7] concerns the target T2, human CCL2 (MCP1) - wild type (wt). The assay can be described thus: cell-based or functional assay. This is another data set of the same source.
Assay [8] addresses T5, human FcγRIIb receptor on CHO-K1 cells (clone 223) (human, UniProt P31994 43-310).
T5 sequence (looked up): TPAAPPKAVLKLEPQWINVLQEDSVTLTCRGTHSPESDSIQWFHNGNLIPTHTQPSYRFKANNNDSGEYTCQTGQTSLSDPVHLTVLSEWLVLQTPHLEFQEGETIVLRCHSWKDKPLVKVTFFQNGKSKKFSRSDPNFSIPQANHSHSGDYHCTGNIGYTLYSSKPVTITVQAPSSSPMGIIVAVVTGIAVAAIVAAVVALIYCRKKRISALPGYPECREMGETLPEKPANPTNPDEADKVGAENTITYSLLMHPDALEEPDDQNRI
The assay can be described thus: cell-based or functional assay.

Assay [9] addresses T1, human CCL2 (MCP1) - P8A variant. The assay is described as follows: number printed beside the row of sensorgrams; the assay and the CCL2 form behind the number are not stated on the sheet (the sensorgrams are on monomeric CCL2).

B1: 11K2H1503/11K2L1338 (antibody, V domains shown)
VH: QVQLVQSGAEVKKPGSSVKVSCKASGLTISHTYMHWVRQAPGQGLEWMGRIDPDNHNTKFDPKFQGRVTITADTSTSTAYMELSSLRSEDTAVYYCARGVFGFFDHWGQGTTVTVSS
VL: DIQMTQSPSSLSASVGDRVTITCKAFEDIYNRRAWYQQKPGKAPKLLIHGATSLEHGVPSRFSGSGSGTDYTLTISSLQPEDFATYYCQQFWSAPYTFGGGTKVEIK
notes: also called modified 11K2 variant (VH H1503 / VL L1338)
As to B1, the “Affinity relative to parent 11K2” value in [1] worked out at 0.2.

B2: 11K2H1503/11K2L1201 (antibody, V domains shown)
VH: B1 VH
VL: B1 VL with F26T, R33L, W92R
notes: also called modified 11K2 variant (VH H1503 / VL L1201)
As for B2, the “Affinity relative to parent 11K2” value in assay [1] came to 0.05.

B3: 11K2H1510/11K2L1338 (antibody, V domains shown)
VH: B1 VH with D105E
VL: B1 VL
notes: also called modified 11K2 variant (VH H1510 / VL L1338)
Turning to B3, in assay [1], the “Affinity relative to parent 11K2” value was below 0.01.

B4: 11K2H1514/11K2L1338 (antibody, V domains shown)
VH: B1 VH with D54E, D105E
VL: B1 VL
notes: also called modified 11K2 variant (VH H1514 / VL L1338)
Regarding B4, in assay [1], the “Affinity relative to parent 11K2” value came to 0.02.

B5: 1G9 (antibody, IgG1, V domains shown)
VH: QSLEESGGDLVKPGASLTLTCKASGIDFSLYSYMCWVRQAPGKGLEWIACVDAGASGSTYYASWAKGRFTISKTSSTTVTLQMTSLTAADTATYFCARGILYYTWPYPAGAIDAFDSWGPGTLVTVSS
VL: AYDMTQTPASVSEPVGGTVTIKCQASESISNYLSWYQQKPGQPPKLLIYKASTLASGVPSRFKGSGSGTEYTVTISGVQSDDAATYYCQQSYSSSNVFNTFGGGTEVVVK
notes: also called CCL2-0010
On to B5, for which the Kd (commonly the concentration at which binding is half-saturated) in assay [2] is 62 pM; in assay [3] it was 51 pM. The “T1/2” value was found to be 2.95 h in [2] and 3.63 h in assay [3]. Also, in assay [4], the “THP1 chemotaxis [fold change compared to IgG control]” value came out at 0.9 fold. Moreover, the binding result in assay [5] is given as “no binding (tested: 20 nM)”; in assay [6], “binds”.

B6: CKLO2-SG1095 (=P1AD8325) (bispecific antibody)
heavy 1: DIQMTQSPSSLSASVGDRVTITCKAFEDIYNRRAWYQQKPGKAPKLLIHGATSLEHGVPSRFSGSGSGTDYTLTISSLQPEDFATYYCQQFWSAPYTFGGGTKVEIKSSASTKGPSVFPLAPSSKSTSGGTAALGCLVKDYFPEPVTVSWNSGALTSGVHTFPAVLQSSGLYSLSSVVTVPSSSLGTQTYICNVNHKPSNTKVDKKVEPKSCDKTHTCPPCPAPELWNGPSVFLFPPKPKDTLMISRTPEVTCVVVDVSDEDPEVKFNWYVDGVEVHNAKTKPREELYNSTYRVVSVLTVLHRDWLNGKEYKCKVSNTALPKPIEKTISKAKGQRREPQVYTLPPCRDELTKNQVSLWCLVKGFYPSDIAVEWESNGQPENNYKTTPPVLDSDGSFFLYSKLTVDKSRWQQGNVFSCSVMHEALHAHYTRKELSLSP
heavy 2: not shown
light 1: QVQLVQSGAEVKKPGSSVKVSCKASGLTISHTYMHWVRQAPGQGLEWMGRIDPDNHNTKFDPKFQGRVTITADTSTSTAYMELSSLRSEDTAVYYCARGVFGFFEHWGQGTTVTVSSASVAAPSVFIFPPSDEQLKSGTASVVCLLNNFYPREAKVQWKVDNALQSGNSQESVTEQDSKDSTYSLSSTLTLSKADYEKHKVYACEVTHQGLSSPVTKSFNRGEC
light 2: EIVLTQSPATLSLSPGERATLSCRASQHVSDAYLAWYQQKPGQAPRLLIYDASDRAEGVPARFSGSGSGTDFTLTISSLEPEDFAVYYCHQYIHLHSFTFGQGTKVEIKRTVAAPSVFIFPPSDRKLKSGTASVVCLLNNFYPREAKVQWKVDNALQSGNSQESVTEQDSKDSTYSLSSTLTLSKADYEKHKVYACEVTHQGLSSPVTKSFNRGEC
Regarding B6, the “IC50, inhibition of THP-1 migration (chemotaxis assay)” value in assay [7] worked out at 0.2 µg/mL. In assay [8], the “Depletion level max (%) of CCL2 from the supernatant” value was found to be 85% and the “EC50 [nM] of CCL2 depletion” value was 0.5 nM.

B7: CKLO2-GG01 (=P1AF8137) (bispecific antibody)
heavy 1: B6 heavy 1 with L226Y, W227L, N228G, P230D, T242V, V256I, D260H, L287Q, T299P, T318K
heavy 2: not shown
light 1: B6 light 1
light 2: B6 light 2
B7: in [7], the “IC50, inhibition of THP-1 migration (chemotaxis assay)” value stood at 0.2 µg/mL.

B8: 1A5 (antibody, IgG1, V domains shown)
VH: QEQLVESGGDLVKPEGSLTLTCTASGFSFSTSYWMCWVRQAPGKGLELIACISSSIGVTYYASWAEGRFTISKTSSTTVTLQMTSLTVADTATYFCARTTDDNWNVGFNLWGPGTLVTVSS
VL: AYDMTQTPASVEVGVGGTVTIKCQASQSIGNRYLSWYQQKPGQPPKLLIYGTSTLASGVSSRFKGSGSGTQFTLTISGVESADSATYYCQQGATISYLDNAFGGGTEVVVK
notes: also called CCL2-0009
For B8, the Kd was determined as 24 pM in assay [2] and 46 pM in [3]. The “T1/2” value in assay [2] is 2.67 h; in assay [3], 2.28 h. Besides, the “THP1 chemotaxis [fold change compared to IgG control]” value in assay [4] was 3.6 fold. The values for the binding result in assay [5] and in assay [6] were “binds” and “no binding (tested: 20 nM)”, respectively.

B9: CNTO888H0625/CNTO888L0616 (antibody, V domains shown)
VH: QVQLVQSGAEVKKPGSSVKVSCKASGGTFSHYGISWVRQAPGQGLEWMGGIIHIFHTANYAQKFQGRVTITADESTSTAYMELSSLRSEDTAVYYCARYDAHYGELDFWGQGTLVTVSS
VL: EIVLTQSPATLSLSPGERATLSCRASQHVSDAYLAWYQQKPGQAPRLLIYDASDRAEGVPARFSGSGSGTDFTLTISSLEPEDFAVYYCHQYIHLHSFTFGQGTKVEIK
notes: also called modified CNTO888 variant (VH H0625 / VL L0616)
Turning to B9, in assay [9], the “Affinity relative to parent CNTO888” value turned out to be 3 X.

B10: CNTO888H0635/CNTO888L0616 (antibody, V domains shown)
VH: B9 VH with I51H, H56G
VL: B9 VL
notes: also called modified CNTO888 variant (VH H0635 / VL L0616)
As for B10, the “Affinity relative to parent CNTO888” value in [9] was 3 X.

B11: CNTO888 (antibody, V domains shown)
VH: B9 VH with H31S, H53P, H56G, A101G, H102I
VL: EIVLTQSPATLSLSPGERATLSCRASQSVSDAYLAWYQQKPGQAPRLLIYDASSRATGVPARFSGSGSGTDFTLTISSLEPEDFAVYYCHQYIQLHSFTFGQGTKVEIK
notes: IgG1 wild type with kappa light chain; also called CCL2-0004; CNTO888-IgG1
B11: the binding result in assay [5] is “no binding (tested: 20 nM)”.

B12: CNTO888H0695/CNTO888L0616 (antibody, V domains shown)
VH: B9 VH with I51V, H53P
VL: B9 VL
notes: also called modified CNTO888 variant (VH H0695 / VL L0616)
Consider B12, for which the “Affinity relative to parent CNTO888” value in assay [9] was found to be 1 X.

B13: CNTO888H0634/CNTO888L0616 (antibody, V domains shown)
VH: B9 VH with I34T, H56G
VL: B9 VL
notes: also called modified CNTO888 variant (VH H0634 / VL L0616)
Consider B13, for which, in assay [9], the “Affinity relative to parent CNTO888” value is 10 X.
